Measured values: publication PMC9963752 (Proceedings of the National Academy of Sciences of the …, 2023)
No end group written: not given here.

Tests used:
GRPR = conditions: relative to PD176252 (methoxy group replaced by hydrogen); cited from earlier work
[1] = target: GRPR with alanine mutation of Q120^3.30 (human, UniProt P30550 1-384, alanine mutation of Q120^3.30); experiment: cell-based or functional assay
[2] = target: GRPR with alanine mutation of C93^2.57 (human, UniProt P30550 1-384, alanine mutation of C93^2.57); experiment: cell-based or functional assay

| Molecule | reduction for GRPR binding (GRPR) [fold] | GRP-induced calcium mobilization in transfected CHO cells: EC50 against WT-GRPR [1] [fold] | GRP-induced calcium mobilization in transfected CHO cells: EC50 against WT-GRPR [2] [fold] |
| --- | --- | --- | --- |
| C[C@@](Cc1c[nH]c2ccccc12)(NC(=O)Nc1ccc([N+](=O)[O-])cc1)C(=O)NCC1(c2ccccn2)CCCCC1 [PD168368] | 17 | – | – |
| VPLPAGGGTVLTKMYPRGNHWAVGHLM-NH2 [gastrin-releasing peptide] | – | 25 | 12 |
